Article PMC11722253

Assays:
[1] = biological target: T1, SPbeta integrase-RDF fusion (SprA-SprB) (Bacillus subtilis phage SPbeta, UniProt O32006 1-545+=TSGSGGSGGSGGSGRSGT+O34850:2-58, internal_change); test: SEC
T1 sequence: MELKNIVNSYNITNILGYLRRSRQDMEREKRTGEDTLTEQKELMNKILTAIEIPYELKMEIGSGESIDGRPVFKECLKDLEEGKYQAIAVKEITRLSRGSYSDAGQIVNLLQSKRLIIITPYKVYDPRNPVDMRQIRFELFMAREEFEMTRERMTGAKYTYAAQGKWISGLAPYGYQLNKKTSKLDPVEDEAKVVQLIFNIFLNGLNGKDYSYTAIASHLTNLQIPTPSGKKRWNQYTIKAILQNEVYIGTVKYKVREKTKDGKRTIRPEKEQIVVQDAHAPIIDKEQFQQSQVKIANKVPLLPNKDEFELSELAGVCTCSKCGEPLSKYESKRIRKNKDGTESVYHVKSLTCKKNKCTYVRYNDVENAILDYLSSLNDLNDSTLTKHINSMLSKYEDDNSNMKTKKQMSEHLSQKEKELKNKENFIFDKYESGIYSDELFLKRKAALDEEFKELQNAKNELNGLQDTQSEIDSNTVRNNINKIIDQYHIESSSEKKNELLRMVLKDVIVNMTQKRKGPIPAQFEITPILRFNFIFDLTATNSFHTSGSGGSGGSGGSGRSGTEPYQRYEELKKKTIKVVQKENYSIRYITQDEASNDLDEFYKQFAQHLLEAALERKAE

[2] = biological target: T2, SPbeta integrase (SprA) (Bacillus subtilis phage SPbeta, UniProt O32006 1-545); test: SEC
T2 sequence: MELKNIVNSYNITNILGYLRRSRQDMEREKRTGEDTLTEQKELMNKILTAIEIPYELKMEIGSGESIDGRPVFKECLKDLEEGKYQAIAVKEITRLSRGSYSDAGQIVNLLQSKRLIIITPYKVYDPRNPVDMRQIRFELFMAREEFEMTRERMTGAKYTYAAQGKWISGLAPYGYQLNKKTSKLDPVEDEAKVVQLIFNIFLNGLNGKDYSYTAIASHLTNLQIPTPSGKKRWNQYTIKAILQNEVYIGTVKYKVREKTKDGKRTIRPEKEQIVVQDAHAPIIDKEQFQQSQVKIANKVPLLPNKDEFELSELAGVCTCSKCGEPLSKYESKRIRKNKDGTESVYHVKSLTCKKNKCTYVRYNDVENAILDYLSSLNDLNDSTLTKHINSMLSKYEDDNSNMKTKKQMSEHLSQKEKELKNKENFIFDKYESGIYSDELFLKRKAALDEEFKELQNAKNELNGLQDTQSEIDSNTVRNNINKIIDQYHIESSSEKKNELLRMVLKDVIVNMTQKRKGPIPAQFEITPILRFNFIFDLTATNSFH

B1: attPmm (dsDNA)
DNA 1: AAAAAAAAGGTAGTAAGTATCTTAAAAAACAGATTTAGCTGTATATTAAGATACTTACTAC
DNA 2: GTAGTAAGTATCTTAATATACAGCTTTATCTGTTTTTTAAGATACTTACTACTTTTTTTTT
B1: binds [1]; binds [2].
